The record followed here is article PMC9519043.

The subject of data set [1] is HCoV 229E virus particle (Human coronavirus 229E (ATCC VR-740)). Nature of the data set: microfluidic affinity capture, RT-qPCR. The settings on record: 5' amino C12 linker and TEG spacer 9, 3' inverted dT, SPR (BIAcore T200, […], pH not stated.
Data set [2] has as its system HCoV OC43 virus particle (Betacoronavirus 1 HCoV OC43 (ATCC VR-1558)). Nature of the data set: microfluidic affinity capture, RT-qPCR. As to conditions: 5' amino C12 linker and TEG spacer 9, 3' inverted dT, SPR (BIAcore T200, […], pH not stated.

Take “CAGCACCGACCTTGTGCTTTGGGAGTGCTGGTCCAAGGGCGTTAATGGACA [51-nt SARS-CoV-2 aptamer, chip form]”: the binding signal in data set [1] stood at 0.7 % recovery; in data set [2] it was 3.5 % recovery.
